IntAct's records for PubMed 19675567

B1: ATPase GET3 (Saccharomyces cerevisiae), Q12154 (parent)
chain: MDLTVEPNLHSLITSTTHKWIFVGGKGGVGKTTSSCSIAIQMALSQPNKQFLLISTDPAHNLSDAFGEKFGKDARKVTGMNNLSCMEIDPSAALKDMNDMAVSRANNNGSDGQGDDLGSLLQGGALADLTGSIPGIDEALSFMEVMKHIKRQEQGEGETFDTVIFDTAPTGHTLRFLQLPNTLSKLLEKFGEITNKLGPMLNSFMGAGNVDISGKLNELKANVETIRQQFTDPDLTTFVCVCISEFLSLYETERLIQELISYDMDVNSIIVNQLLFAENDQEHNCKRCQARWKMQKKYLDQIDELYEDFHVVKMPLCAGEIRGLNNLTKFSQFLNKEYNPITDGKVIYELEDKE

Variants of: B1
Conditions: with sc61b_human SEC61B

Variant	effect of a mutation on the interaction
C285S;C288S	decreasing interaction
